Experimental findings from US20260242735A1 (UNIVERSIT T BASEL, published 2026) are described below.

One assay deals with human CD33 P46F (human, UniProt P20138 18-364). Description: flow cytometry, transfected cells. For orientation: In flow cytometry, cells or beads pass a laser one at a time.
The target in the next assay is human CD33 P46R (human, UniProt P20138 18-364). As to the kind of experiment: flow cytometry, transfected cells.
The target in another assay is human CD33 P46Y (human, UniProt P20138 18-364). Description: flow cytometry, transfected cells.
The next assay addresses human CD33 P46H (human, UniProt P20138 18-364). As to the kind of experiment: flow cytometry, transfected cells.
Another assay has as its target human CD33 P46D (human, UniProt P20138 18-364). As to the kind of experiment: flow cytometry, transfected cells.
A further assay deals with human CD33 P19D (human, UniProt P20138 18-364). Description: flow cytometry, transfected cells.
Another assay has as its target human CD33 P19K (human, UniProt P20138 18-364). Description: flow cytometry, transfected cells.
In the next assay the target is human CD33 N20P (human, UniProt P20138 18-364). Description: flow cytometry, transfected cells.
The target of another assay is human CD33 N20D (human, UniProt P20138 18-364). As to the kind of experiment: flow cytometry, transfected cells.
The target in a further assay is human CD33 N20E (human, UniProt P20138 18-364). Description: flow cytometry, transfected cells.
The target of the next assay is human CD33 N20K (human, UniProt P20138 18-364). Description: flow cytometry, transfected cells.
Another assay deals with human CD33 F21L (human, UniProt P20138 18-364). As to the kind of experiment: flow cytometry, transfected cells.
Another assay concerns the target human CD33 F21I (human, UniProt P20138 18-364). As to the kind of experiment: flow cytometry, transfected cells.
A further assay concerns the target human CD33 W22G (human, UniProt P20138 18-364). As to the kind of experiment: flow cytometry, transfected cells.
Another assay has as its target human CD33 W22L (human, UniProt P20138 18-364). As to the kind of experiment: flow cytometry, transfected cells.
Another assay has as its target human CD33 W22N (human, UniProt P20138 18-364). As to the kind of experiment: flow cytometry, transfected cells.
A further assay deals with human CD33 K52I (human, UniProt P20138 18-364). Description: flow cytometry, transfected cells, IgG.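 Also: CD33 point mutants transiently expressed in HEK293-T cells, antibody binding read by fluorescence, background subtracted and normalized to wild-type CD33 as 100%, duplicates.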
A further assay addresses human CD33 R122S (human, UniProt P20138 18-364). Description: flow cytometry, transfected cells, IgG.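 Also: CD33 point mutants transiently expressed in HEK293-T cells, antibody binding read by fluorescence, background subtracted and normalized to wild-type CD33 as 100%, duplicates.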
The next assay has as its target human CD33 R122I (human, UniProt P20138 18-364). Description: flow cytometry, transfected cells, IgG.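 Also: CD33 point mutants transiently expressed in HEK293-T cells, antibody binding read by fluorescence, background subtracted and normalized to wild-type CD33 as 100%, duplicates.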
A further assay addresses human CD33 S131T (human, UniProt P20138 18-364). As to the kind of experiment: flow cytometry, transfected cells, IgG.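 Also: CD33 point mutants transiently expressed in HEK293-T cells, antibody binding read by fluorescence, background subtracted and normalized to wild-type CD33 as 100%, duplicates.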
The next assay addresses human CD33 S131H (human, UniProt P20138 18-364). As to the kind of experiment: flow cytometry, transfected cells, IgG.
Another assay has as its target human CD33 S131D (human, UniProt P20138 18-364). Description: flow cytometry, transfected cells, IgG.
Another assay addresses human CD33 S131K (human, UniProt P20138 18-364). Description: flow cytometry, transfected cells, IgG.
The next assay concerns the target human CD33 S131F (human, UniProt P20138 18-364). Description: flow cytometry, transfected cells, IgG.
The next assay has as its target human CD33 S131Y (human, UniProt P20138 18-364). Description: flow cytometry, transfected cells, IgG.
Another assay deals with human CD33 P132T (human, UniProt P20138 18-364). As to the kind of experiment: flow cytometry, transfected cells, IgG.
A further assay has as its target human CD33 P132N (human, UniProt P20138 18-364). Description: flow cytometry, transfected cells, IgG.
Another assay has as its target human CD33 L134T (human, UniProt P20138 18-364). Description: flow cytometry, transfected cells, IgG.
The next assay addresses human CD33 L134F (human, UniProt P20138 18-364). As to the kind of experiment: flow cytometry, transfected cells, IgG.
The target of the next assay is human CD33 P48F (human, UniProt P20138 18-364). Description: flow cytometry, transfected cells.
Sequence of human CD33 P48F (P20138 18-364 P48F limits assumed): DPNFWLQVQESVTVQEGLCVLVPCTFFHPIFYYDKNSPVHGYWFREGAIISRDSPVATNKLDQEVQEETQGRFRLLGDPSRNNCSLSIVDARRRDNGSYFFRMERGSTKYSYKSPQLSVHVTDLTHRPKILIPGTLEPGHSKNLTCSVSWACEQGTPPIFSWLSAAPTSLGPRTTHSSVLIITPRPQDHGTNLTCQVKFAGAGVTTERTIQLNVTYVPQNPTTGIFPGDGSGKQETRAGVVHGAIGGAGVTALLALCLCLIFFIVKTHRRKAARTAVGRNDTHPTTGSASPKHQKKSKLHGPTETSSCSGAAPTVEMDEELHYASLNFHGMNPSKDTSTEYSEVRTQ
A further assay deals with human CD33 P48Y (human, UniProt P20138 18-364). As to the kind of experiment: flow cytometry, transfected cells.
The next assay deals with human CD33 P48W (human, UniProt P20138 18-364). As to the kind of experiment: flow cytometry, transfected cells.
Sequence of human CD33 P48W (P20138 18-364 P48W limits assumed): as the sequence (P20138 18-364 P48F limits assumed) above, with F31W counted along it
Another assay has as its target human CD33 P48N (human, UniProt P20138 18-364). Description: flow cytometry, transfected cells.
For a further assay, the target named is human CD33 P48Q (human, UniProt P20138 18-364). As to the kind of experiment: flow cytometry, transfected cells.
Sequence of human CD33 P48Q (P20138 18-364 P48Q limits assumed): as the sequence (P20138 18-364 P48F limits assumed) above, with F31Q counted along it
For a further assay, the target named is human CD33 Y49P (human, UniProt P20138 18-364). As to the kind of experiment: flow cytometry, transfected cells.
Sequence of human CD33 Y49P (P20138 18-364 Y49P limits assumed): as the sequence (P20138 18-364 P48F limits assumed) above, with F31P, Y32P counted along it
A further assay addresses human CD33 Y49D (human, UniProt P20138 18-364). Description: flow cytometry, transfected cells.
In a further assay the target is human CD33 Y50S (human, UniProt P20138 18-364). As to the kind of experiment: flow cytometry, transfected cells.
Sequence of human CD33 Y50S (P20138 18-364 Y50S limits assumed): as the sequence (P20138 18-364 P48F limits assumed) above, with F31P, Y33S counted along it
In another assay the target is human CD33 Y50V (human, UniProt P20138 18-364). Description: flow cytometry, transfected cells.
A further assay addresses human CD33 Y50I (human, UniProt P20138 18-364). Description: flow cytometry, transfected cells.
In the next assay the target is human CD33 I47P (human, UniProt P20138 18-364). Description: flow cytometry, transfected cells.

Sequence of human CD33 R122S (P20138 18-364 R122S limits assumed): as the sequence (P20138 18-364 P48F limits assumed) above, with F31P, R105S counted along it
Sequence of human CD33 S131H (P20138 18-364 S131H limits assumed): as the sequence (P20138 18-364 P48F limits assumed) above, with F31P, S114H counted along it
Sequence of human CD33 P132N (P20138 18-364 P132N limits assumed): as the sequence (P20138 18-364 P48F limits assumed) above, with F31P, P115N counted along it
Sequence of human CD33 P48N (P20138 18-364 P48N limits assumed): as the sequence (P20138 18-364 P48F limits assumed) above, with F31N counted along it
Sequence of human CD33 R122I (P20138 18-364 R122I limits assumed): as the sequence (P20138 18-364 P48F limits assumed) above, with F31P, R105I counted along it
Sequence of human CD33 S131K (P20138 18-364 S131K limits assumed): as the sequence (P20138 18-364 P48F limits assumed) above, with F31P, S114K counted along it
Sequence of human CD33 L134T (P20138 18-364 L134T limits assumed): as the sequence (P20138 18-364 P48F limits assumed) above, with F31P, L117T counted along it
Sequence of human CD33 S131D (P20138 18-364 S131D limits assumed): as the sequence (P20138 18-364 P48F limits assumed) above, with F31P, S114D counted along it
Sequence of human CD33 L134F (P20138 18-364 L134F limits assumed): as the sequence (P20138 18-364 P48F limits assumed) above, with F31P, L117F counted along it
Protocol for human CD33 K52I: (§1) An alanine scan on human CD33 was performed to the determine the residues on CD33 that are involved in binding to the antibodies investigated. […] Briefly, a mutation library of CD33 was created by high-throughput, site-directed mutagenesis. Each residue was individually mutated to alanine, with alanine codons mutated to serine. The mutant library was arrayed in 384-well microplates and transiently transfected into HEK293-T. Following transfection, cells were incubated with the indicated antibodies (IgG or Fab) at concentrations pre-determined using an independent immunofluorescence titration curve on wild type CD33. […] Binding of each antibody to each mutant clone was determined in duplicates. For each point, background fluorescence was subtracted from the raw data, which were then normalized to antibody reactivity with wild type CD33.
(§2) Antibodies were screened for binding to the human CD33 variants in IgG format. […] For each mutation, background fluorescence was subtracted from the raw data, which were then normalized to antibody reactivity with wild-type CD33.
Protocol for human CD33 L134F: as §1, §2
Protocol for human CD33 L134T: as §1, §2
Protocol for human CD33 P132N: as §1, §2
Protocol for human CD33 P132T: as §1, §2
Protocol for human CD33 R122I: as §1, §2
Protocol for human CD33 R122S: as §1, §2
Protocol for human CD33 S131D: as §1, §2
Protocol for human CD33 S131F: as §1, §2
Protocol for human CD33 S131H: as §1, §2
Protocol for human CD33 S131K: as §1, §2
Protocol for human CD33 S131T: as §1, §2
Protocol for human CD33 S131Y: as §1, §2

B1: Refmab #1 (antibody, human IgG1, V domains shown)
VH: EVQLVQSGAEVKKPGSSVKVSCKASGYTITDSNIHWVRQAPGQSLEWIGYIYPYNGGTDYNQKFKNRATLTVDNPTNTAYMELSSLRSEDTAFYYCVNGNPWLAYWGQGTLVTVSS
VL: DIQLTQSPSTLSASVGDRVTITCRASESLDNYGIRFLTWFQQKPGKAPKLLMYAASNQGSGVPSRFSGSGSGTEFTLTISSLQPDDFATYYCQQTKEVPWSFGQGTKVEVK
notes: also called hP67.6; Absolute Antibody Cat. No. Ab00283-10.0
Regarding B1, the binding result in the assay with human CD33 P46F, in the assay with human CD33 P46R, with human CD33 P46Y, with human CD33 P46H, with human CD33 P46D and with human CD33 P19D was “no binding (tested: below 20%)” throughout. Also, the binding result with human CD33 P19K, with human CD33 N20P, in the assay with human CD33 N20D, with human CD33 N20E, with human CD33 N20K and in the assay with human CD33 F21L was “no binding (tested: below 20%)” in each case. In addition, the binding result with human CD33 F21I is given as “no binding (tested: below 20%)”.

B2: Refmab #6 (antibody, human IgG1, V domains shown)
VH: QVQLQQPGAEVVKPGASVKMSCKASGYTFTSYYIHWIKQTPGQGLEWVGVIYPGNDDISYNQKFQGKATLTADKSSTTAYMQLSSLTSEDSAVYYCAREVRLRYFDVWGQGTTVTVSS
VL: EIVLTQSPGSLAVSPGERVTMSCKSSQSVFFSSSQKNYLAWYQQIPGQSPRLLIYWASTRESGVPDRFTGSGSGTDFTLTISSVQPEDLAIYYCHQYLSSRTFGQGTKLEIK
Take B2: the binding result in the assay with human CD33 W22G, in the assay with human CD33 W22L and in the assay with human CD33 W22N was “no binding (tested: below 20%)” in each case. For the same molecule, the “Mean % WT Binding” value worked out at 71.6% in the assay with human CD33 K52I; 108% with human CD33 R122S; 107% in the assay with human CD33 R122I; 99.5% with human CD33 S131T; 68.5% in the assay with human CD33 S131H; 88.9% with human CD33 S131D. The “Mean % WT Binding” value with human CD33 S131K was 2.5%; in the assay with human CD33 S131F it was 2.4%; with human CD33 S131Y it was 24.5%; with human CD33 P132T it was 11.7%; with human CD33 P132N it was 2.2%; with human CD33 L134T, 88.4%. The “Mean % WT Binding” value with human CD33 L134F was found to be 90.7%.

B3: Refmab #4 (antibody, human IgG1, V domains shown)
VH: QVQLVQSGAEVKKPGESVKVSCKASGYTFTNYGMNWVKQAPGQGLEWMGWINTYTGEPTYADKFQGRVTMTTDTSTSTAYMEIRNLGGDDTAVYYCARWSWSDGYYVYFDYWGQGTSVTVSS
VL: DIVMTQSPDSLTVSLGERTTINCKSSQSVLDSSTNKNSLAWYQQKPGQPPKLLLSWASTRESGIPDRFSGSGSGTDFTLTIDSPQPEDSATYYCQQSAHFPITFGQGTRLEIK
B3: the binding result with human CD33 P48F, with human CD33 P48Y, with human CD33 P48W, with human CD33 P48N, with human CD33 P48Q and with human CD33 Y49P was “no binding (tested: below 20%)” in each case. The binding result in the assay with human CD33 Y49D, with human CD33 Y50S, in the assay with human CD33 Y50V and in the assay with human CD33 Y50I was “no binding (tested: below 20%)” throughout.

B4: Refmab #5 (antibody, human IgG1, V domains shown)
VH: QVQLVQSGAEVKKPGASVKVSCKASGYTFTNYDINWVRQAPGQGLEWIGWIYPGDGSTKYNEKFKAKATLTADTSTSTAYMELRSLRSDDTAVYYCASGYEDAMDYWGQGTTVTVSS
VL: DIQMTQSPSSLSASVGDRVTINCKASQDINSYLSWFQQKPGKAPKTLIYRANRLVDGVPSRFSGSGSGQDYTLTISSLQPEDFATYYCLQYDEFPLTFGGGTKVEIK
As for B4, the binding result with human CD33 I47P, in the assay with human CD33 P48F, in the assay with human CD33 P48Y, with human CD33 P48W, in the assay with human CD33 P48N and with human CD33 P48Q was “no binding (tested: below 20%)” each time. For the same molecule, the binding result with human CD33 Y49P, with human CD33 Y49D, in the assay with human CD33 Y50S, with human CD33 Y50V and with human CD33 Y50I was “no binding (tested: below 20%)” in each case. In addition, the “Mean % WT Binding” value in the assay with human CD33 K52I was 1.9%; with human CD33 R122S it was 90.6%; with human CD33 R122I it was 86.1%; with human CD33 S131T, 89%; with human CD33 S131H it was 96.8%; in the assay with human CD33 S131D, 102%. The “Mean % WT Binding” value with human CD33 S131K was 96.4%; with human CD33 S131F it was 82.3%; with human CD33 S131Y, 89.5%; in the assay with human CD33 P132T, 93.1%; with human CD33 P132N, 101%; with human CD33 L134T, 96.5%. Moreover, the “Mean % WT Binding” value with human CD33 L134F was determined as 102%.
